Data reported in EP4574844A1 (Numab Therapeutics AG, dated 2025).

Columns and labels:
[1] = target: human PD-L1 on the cell surface (human, UniProt Q9NZQ7 19-290); assay: cell-based or functional assay
[2] = target: human CD47 on the cell surface (human, UniProt Q08722 19-323); assay: cell-based or functional assay
recombinant human PDL1 = target: T1, recombinant human PDL1 (human, UniProt Q9NZQ7 19-238, limits assumed); assay: SPR
T1 construct: SPR antigen; also called CD274; B7-H1

Row | PD-L1 driven EC50 [nM], phagocytosis of H292 cells [1] [nM] | CD47 driven EC50 [nM], phagocytosis of H292 cells [2] [nM] | CD47 driven EC50 [nM], phagocytosis of RBCs [2] [nM] | Kd (recombinant human PDL1) [nM] | koff (recombinant human PDL1) [s⁻¹] | kon (recombinant human PDL1) [M⁻¹ s⁻¹] | Binder
1 | 0.071 | 25.2 | 37.4 |  |  |  | PRO4914 (antibody, human IgG1, kappa) heavy 1: QQVVESGGGLVQPGGSLRLSCAVSGIDLNSYAMTWVRQAPGKGLEWIGYIGSASSTYYASWASGRFTISKDNSKNTVYLQMNSLRAEDTAVYFCARGSTYINIWGQGTLVTVSSASVAAPSVFIFPPSDEQLKSGTASVVCLLNNFYPREAKVQWKVDNALQSGNSQESVTEQDSKDSTYSLSSTLTLSKADYEKHKVYACEVTHQGLSSPVTKSFNRGECDKTHTCPPCPAPELLGGPSVFLFPPKPKDTLMISRTPEVTCVVVDVSHEDPEVKFNWYVDGVEVHNAKTKPREEQYNSTYRVVSVLTVLHQDWLNGKEYKCKVSNKALPAPIEKTISKAKGQPREPQVYTLPPCREEMTKNQVSLSCAVKGFYPSDIAVEWESNGQPENNYKTTPPVLDSDGSFFLVSKLTVDKSRWQQGNVFSCSVMHEALHNHYTQKSLSLSPGKGGGGSGGGGSDVQMTQSPSSLSASVGDRVTITCQASQSIGSNLAWYQQKPGKPPKLLIYKGGTLESGVPSRFSGSGSGTDFTLTISSLQPEDFATYYCQSTAGSSRSGNYGYVFGCGTKVTVLGGGGGSGGGGSGGGGSGGGGSQQLVESGGGLVQPGGSLRLSCAASGFSFTNNYYMCWVRQAPGKCLEWIACMLVGAWGNTYYASWANGRFTISKDNSKNTVYLQMNSLRAEDSAVYFCARARDYTWTLGGDPETSGFNLWGQGTLVKVSS heavy 2: not shown light 1: DVQMTQSPSSLSASVGDRVTITCQASQSISSWVSWYQQKPGKPPKLLIYRGGYLESGVPSRFSASGSGTDFTLTISSLQPEDFATYYCQSTDSSTYGGAFGQGTKVEIKSSASTKGPSVFPLAPSSKSTSGGTAALGCLVKDYFPEPVTVSWNSGALTSGVHTFPAVLQSSGLYSLSSVVTVPSSSLGTQTYICNVNHKPSNTKVDKKVEPKSC light 2: DIQMTQSPSSLSASVGDRVTITCQASQSIGTYLAWYQQKPGKPPKLLIYRGGILASGVPSRFSGSGSGTDFTLTISSLQPEDFATYYCQSNFYSDSTTIGPNAFGQGTKVEIKRTVAAPSVFIFPPSDEQLKSGTASVVCLLNNFYPREAKVQWKVDNALQSGNSQESVTEQDSKDSTYSLSSTLTLSKADYEKHKVYACEVTHQGLSSPVTKSFNRGEC
2 | 0.09 |  |  |  |  |  | PRO5054 (antibody) chain 1: DIQMTQSPSSLSASVGDRVTITCQSSESVYSNNQLSWYQQKPGQPPKLLIYDASDLASGVPSRFSGSGSGTDFTLTISSLQPEDFATYYCAGGFSSSSDTAFGCGTKLTVLGGGGGSGGGGSGGGGSGGGGSEVQLVESGGGLVQPGGSLRLSCAASGFSLSSNAMGWVRQAPGKCLEYIGIISVGGFTYYASWAKGRFTISRDNSKNTVYLQMNSLRAEDSATYFCARDRHGGDSSGAFYLWGQGTLVKVSSEPKSSDKTHTCPPCPAPELLGGPSVFLFPPKPKDTLMISRTPEVTCVVVDVSHEDPEVKFNWYVDGVEVHNAKTKPREEQYNSTYRVVSVLTVLHQDWLNGKEYKCKVSNKALPAPIEKTISKAKGQPREPQVYTLPPCREEMTKNQVSLSCAVKGFYPSDIAVEWESNGQPENNYKTTPPVLDSDGSFFLVSKLTVDKSRWQQGNVFSCSVMHEALHNHYTQKSLSLSPGKGGGGSGGGGSDVQMTQSPSSLSASVGDRVTITCQASQSIGSNLAWYQQKPGKPPKLLIYKGGTLESGVPSRFSGSGSGTDFTLTISSLQPEDFATYYCQSTAGSSRSGNYGYVFGCGTKVTVLGGGGGSGGGGSGGGGSGGGGSQQLVESGGGLVQPGGSLRLSCAASGFSFTNNYYMCWVRQAPGKCLEWIACMLVGAWGNTYYASWANGRFTISKDNSKNTVYLQMNSLRAEDSAVYFCARARDYTWTLGGDPETSGFNLWGQGTLVKVSS chain 2: not shown
3 | 0.13 |  |  |  |  |  | PRO5057 (antibody, human IgG1, kappa) DIQMTQSPSSLSASVGDRVTITCQSSESVYSNNQLSWYQQKPGQPPKLLIYDASDLASGVPSRFSGSGSGTDFTLTISSLQPEDFATYYCAGGFSSSSDTAFGCGTKLTVLGGGGGSGGGGSGGGGSGGGGSEVQLVESGGGLVQPGGSLRLSCAASGFSLSSNAMGWVRQAPGKCLEYIGIISVGGFTYYASWAKGRFTISRDNSKNTVYLQMNSLRAEDSATYFCARDRHGGDSSGAFYLWGQGTLVKVSSEPKSSDKTHTCPPCPAPELLGGPSVFLFPPKPKDTLMISRTPEVTCVVVDVSHEDPEVKFNWYVDGVEVHNAKTKPREEQYNSTYRVVSVLTVLHQDWLNGKEYKCKVSNKALPAPIEKTISKAKGQPREPQVYTLPPCREEMTKNQVSLSCAVKGFYPSDIAVEWESNGQPENNYKTTPPVLDSDGSFFLVSKLTVDKSRWQQGNVFSCSVMHEALHNHYTQKSLSLSPGKGGGGSGGGGSDVQMTQSPSSLSASVGDRVTITCQASQSIGSNLAWYQQKPGKPPKLLIYKGGTLESGVPSRFSGSGSGTDFTLTISSLQPEDFATYYCQSTAGSSRSGNYGYVFGCGTKVTVLGGGGGSGGGGSGGGGSGGGGSQQLVESGGGLVQPGGSLRLSCAASGFSFTNNYYMCWVRQAPGKCLEWIACMLVGAWGNTYYASWANGRFTISKDNSKNTVYLQMNSLRAEDSAVYFCARARDYTWTLGGDPETSGFNLWGQGTLVKVSS heavy: not shown light: DIQMTQSPSSLSASVGDRVTITCQASQSINDYLAWYQQKPGKAPKLLIYKGGTLASGVPSRFSGSGSGTDFTLTISSLQPEDFATYYCQQGYIITDIDNVFGQGTKVEIKRTVAAPSVFIFPPSDEQLKSGTASVVCLLNNFYPREAKVQWKVDNALQSGNSQESVTEQDSKDSTYSLSSTLTLSKADYEKHKVYACEVTHQGLSSPVTKSFNRGEC
4 |  |  |  | 0.012 | 5.7e-05 | 4.7e+06 | PRO3724 (scFv, anti-PDL1 scFv) scFv: DIQMTQSPSSLSASVGDRVTITCQASQSINDYLAWYQQKPGKAPKLLIYKGGTLASGVPSRFSGSGSGTDFTLTISSLQPEDFATYYCQQGYIITDIDNVFGTGTKVTVLGGGGGSGGGGSGGGGSGGGGSQVQLQESGPGLVKPSETLSLTCKASGFSFSSGYDMCWVRQPPGKGLEWIACVVAGSVDITYYASWAKGRVTISKDSSKNQVSLKLSSVTAADTAVYYCARKDAYSDAFNLWGQGTLVTVSS
5 | 0.14 | 9.3 | 2.78 |  |  |  | PRO4682 (antibody, human IgG1, kappa) QQVVESGGGLVQPGGSLRLSCAVSGIDLNSYAMTWVRQAPGKGLEWIGYIGSASSTYYASWASGRFTISKDNSKNTVYLQMNSLRAEDTAVYFCARGSTYINIWGQGTLVTVSSASTKGPSVFPLAPSSKSTSGGTAALGCLVKDYFPEPVTVSWNSGALTSGVHTFPAVLQSSGLYSLSSVVTVPSSSLGTQTYICNVNHKPSNTKVDKKVEPKSCDKTHTCPPCPAPELLGGPSVFLFPPKPKDTLMISRTPEVTCVVVDVSHEDPEVKFNWYVDGVEVHNAKTKPREEQYNSTYRVVSVLTVLHQDWLNGKEYKCKVSNKALPAPIEKTISKAKGQPREPQVYTLPPCREEMTKNQVSLSCAVKGFYPSDIAVEWESNGQPENNYKTTPPVLDSDGSFFLVSKLTVDKSRWQQGNVFSCSVMHEALHNHYTQKSLSLSPGKGGGGGSGGGGSDVQMTQSPSSLSASVGDRVTITCQASQSIGSNLAWYQQKPGKPPKLLIYKGGTLESGVPSRFSGSGSGTDFTLTISSLQPEDFATYYCQSTAGSSRSGNYGYVFGCGTKVTVLGGGGGSGGGGSGGGGSGGGGSQQLVESGGGLVQPGGSLRLSCAASGFSFTNNYYMCWVRQAPGKCLEWIACMLVGAWGNTYYASWANGRFTISKDNSKNTVYLQMNSLRAEDSAVYFCARARDYTWTLGGDPETSGFNLWGQGTLVKVSS heavy: not shown light: DVQMTQSPSSLSASVGDRVTITCQASQSISSWVSWYQQKPGKPPKLLIYRGGYLESGVPSRFSASGSGTDFTLTISSLQPEDFATYYCQSTDSSTYGGAFGQGTKVEIKRTVAAPSVFIFPPSDEQLKSGTASVVCLLNNFYPREAKVQWKVDNALQSGNSQESVTEQDSKDSTYSLSSTLTLSKADYEKHKVYACEVTHQGLSSPVTKSFNRGEC
6 | 0.19 | 5.33 | 2.69 |  |  |  | PRO4683 (antibody, human IgG1, kappa) not shown heavy: QQVVESGGGLVQPGGSLRLSCAVSGIDLNSYAMTWVRQAPGKGLEWIGYIGSASSTYYASWASGRFTISKDNSKNTVYLQMNSLRAEDTAVYFCARGSTYINIWGQGTLVTVSSASTKGPSVFPLAPSSKSTSGGTAALGCLVKDYFPEPVTVSWNSGALTSGVHTFPAVLQSSGLYSLSSVVTVPSSSLGTQTYICNVNHKPSNTKVDKKVEPKSCDKTHTCPPCPAPELLGGPSVFLFPPKPKDTLMISRTPEVTCVVVDVSHEDPEVKFNWYVDGVEVHNAKTKPREEQYNSTYRVVSVLTVLHQDWLNGKEYKCKVSNKALPAPIEKTISKAKGQPREPQVYTLPPCREEMTKNQVSLSCAVKGFYPSDIAVEWESNGQPENNYKTTPPVLDSDGSFFLVSKLTVDKSRWQQGNVFSCSVMHEALHNHYTQKSLSLSPGKGGGGGSGGGGSDIQMTQSPSSLSASVGDRVTITCQSSESVYSNNQLSWYQQKPGQPPKLLIYDASDLASGVPSRFSGSGSGTDFTLTISSLQPEDFATYYCAGGFSSSSDTAFGCGTKLTVLGGGGGSGGGGSGGGGSGGGGSEVQLVESGGGLVQPGGSLRLSCAASGFSLSSNAMGWVRQAPGKCLEYIGIISVGGFTYYASWAKGRFTISRDNSKNTVYLQMNSLRAEDSATYFCARDRHGGDSSGAFYLWGQGTLVKVSS light: DVQMTQSPSSLSASVGDRVTITCQASQSISSWVSWYQQKPGKPPKLLIYRGGYLESGVPSRFSASGSGTDFTLTISSLQPEDFATYYCQSTDSSTYGGAFGQGTKVEIKRTVAAPSVFIFPPSDEQLKSGTASVVCLLNNFYPREAKVQWKVDNALQSGNSQESVTEQDSKDSTYSLSSTLTLSKADYEKHKVYACEVTHQGLSSPVTKSFNRGEC
7 |  |  |  | 0.034 | 0.00014 | 4e+06 | PRO5036 (scFv, anti-PDL1 scFv) scFv: DIQMTQSPSSLSASVGDRVTITCQASQSIGTYLAWYQQKPGKPPKLLIYRGGILASGVPSRFSGSGSGTDFTLTISSLQPEDFATYYCQSNFYSDSTTIGPNAFGTGTKVTVLGGGGGSGGGGSGGGGSGGGGSQQLVESGGGLVQPGGSLRLSCAASGFSFNSDYWIYWVRQAPGKGLEWIASIYGGSSGNTQYASWAQGRFTISKDNSKNTVYLQMNSLRAEDTAVYFCARGYVDYGGATDLWGQGTLVTVSS
8 |  |  |  | 0.0258 | 7.95e-05 | 3.08e+06 | PRO3723 (scFv, anti-PDL1 scFv) scFv: DIQMTQSPASLSASVGDRVTITCQASQSIGTYLAWYQQKPGKPPKLLIYRGGILASGVPSRFSGSGSGTDFTLTISSLQPEDFATYYCQSNFYSDSTTIGPNAFGTGTKVTVLGGGGGSGGGGSGGGGSGGGGSEVQLVESGGGLVQPGGSLRLSCAASGFSFNSDYWIYWVRQAPGKGLEWIACIYGGSSGNTQYASWAQGRFTISRDNSKNTVYLQMNSLRAEDTAVYFCARGYVDYGGATDLWGQGTLVTVSS
